Data as given in the RNAGym collection of RNA variant scans (doi:10.1073/pnas.2313332121).

B1: TPR t1 (parent)
chain: GACCAAUCUGCCCUCAGAGCUCGAGAACAUCUUCGGAUGCAGAGGAGGCAGGCUUCGGUGGCGCGAUAGCGCCAACGUCCUCAACCUCCAAUGCAUCCCACCACAUGAUGAUGCCUGAAGAGCCUUGGUUUUUUG

Variants of: B1
Assay: polymerase ribozyme fitness, log enrichment relative to wild type (log ratio); higher = more active; in vitro selection for triplet polymerase activity
How it was run: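 Mutant libraries of both subunits of a heterodimeric triplet polymerase ribozyme were PCR-built, transcribed, and selected once in triplicate, with frozen incubation at −7 °C and capture of gel-excised extended constructs on streptavidin beads before RT-PCR. Illumina sequencing of input and output libraries was filtered to genotypes with ≥10 input reads and ≥1 read per output. Fitness is the logarithm of genotype enrichment over wild-type enrichment, using inverse-variance-weighted replicate averages. The logarithm is base 2.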

| Variant | polymerase ribozyme fitness (log ratio) |
| --- | --- |
| A46U C62G U112G | -2.14 |
| A46U C62U | -1.12 |
| A46U C62U G113A | -2.45 |
| A46U C64G C123G C124A | -5.93 |
| A46U C64U A66U | -2.06 |
| A46U C70U C79G U130C | -4.73 |
| A46U C72U U96A G120A | -1.15 |
| A46U C73U C123G G127A | -1.5 |
| A46U C76A A84C A100C C124A | -4.99 |
| A46U C79U C82U G110U G135A | -3.2 |
| A46U C82A | -1.42 |
| A46U C86A A118G | -0.968 |
| A46U C88A | -1.18 |
| A46U C89U | -2.66 |
| A46U C89U G135U | -4.54 |
| A46U C97A C99G G117C | -7.9 |
| A46U C101G | -3.57 |
| A46U C101U | -0.308 |
| A46U C104A | -2.88 |
| A46U G48A G52A C62A C88U C124U | -7.18 |
| A46U G48U U112G G135C | -3.81 |
| A46U G52C U87G G135U | -1.01 |
| A46U G52U A66G C104U G110A | -5.89 |
| A46U G57U C94A | -2.21 |

| Variant | polymerase ribozyme fitness (log ratio) |
| --- | --- |
| A46U G58A A83G A84C | -2.18 |
| A46U G60C | -0.894 |
| A46U G60C G93C G113C A121C | -4.8 |
| A46U G60C U96C C123G | 0.53 |
| A46U G63A | -1.91 |
| A46U G63A C85G A121C | -1.37 |
| A46U G63C C76A C85A C115G | -5.34 |
| A46U G69U A91U A103G U106A C114U U131G | -5.56 |
| A46U G71C C73U | -3.63 |
| A46U G71U A118G | -0.0825 |
| A46U G71U C89U C115A | -2.17 |
| A46U G71U G110A | -2.84 |
| A46U G77C C115U G122A U130C | -4.76 |
| A46U G93A A119G U132A | -1.15 |
| A46U G93U | -2.06 |
| A46U G107C | -6.11 |
| A46U G110A | -2.4 |
| A46U G113U | -3.73 |
| A46U G117C | -1.89 |
| A46U G120U | -0.451 |
| A46U G120U G135C | -0.818 |
| A46U G122A | -2.16 |
| A46U G127C | -2.68 |
| A46U G127U | -2.62 |

| Variant | polymerase ribozyme fitness (log ratio) |
| --- | --- |
| A46U G128U | -3.23 |
| A46U U96A | -1.81 |
| A46U U96C C115U | -2.77 |
| A46U U106A | -1.09 |
| A46U U106A C124G U129G | -0.0518 |
| A46U U130G | -1.6 |
| G47A A50U G57U C82A | -2.37 |
| G47A A68G | -3.62 |
| G47A A83U | -0.645 |
| G47A A121U | 1.38 |
| G47A C53U U54C | -1.11 |
| G47A C56G | -1.29 |
| G47A C56U | 0.000278 |
| G47A C62U U112C C114U A118G | -3.76 |
| G47A C70A C101U | -1.81 |
| G47A C72A | -0.266 |
| G47A C72U | -0.456 |
| G47A C72U A121U | 1.16 |
| G47A C82G U106A | -1.42 |
| G47A C88G U112G U133A | -5.65 |
| G47A C94A | -1.89 |
| G47A G48A C53A G127A | -3.92 |
| G47A G48A U129A | -2.41 |
| G47A G48C G52U C79U | -3.46 |

| Variant | polymerase ribozyme fitness (log ratio) |
| --- | --- |
| G47A G51C C98A C102U C115U G127U | -7.84 |
| G47A G51U C72U U78C | -5 |
| G47A G51U U55A C98A G113C | -7.22 |
| G47A G52A G61C G120A | -4.97 |
| G47A G58C G113A A121C U125C U131C | -0.547 |
| G47A G58U G110U G120A | -3.22 |
| G47A G60C G69U A119U | -2.55 |
| G47A G60U U133G | -0.844 |
| G47A G61A | -2.4 |
| G47A G61A A84C | -1.29 |
| G47A G69A G77C C99U C114G | -6.85 |
| G47A G69C C101U G122A | -3.07 |
| G47A G69U C98U C99U | -2.9 |
| G47A G93U G113U C123U G135U | -6.04 |
| G47A G110A | -1.67 |
| G47A G113C | -3.08 |
| G47A G113U | -2.8 |
| G47A G117C | -4.01 |
| G47A G127C | -2.06 |
| G47A U54C C97G | -5.9 |
| G47A U54C G77A C82A G110A C123A | -3.8 |
| G47A U59G A91U G113A | -2.02 |
| G47A U78A | -1.09 |
| G47A U96G G120U | -1.94 |

| Variant | polymerase ribozyme fitness (log ratio) |
| --- | --- |
| G47A U112A | -0.273 |
| G47A U125G | -2.16 |
| G47C A50C C72U C85G C88G C102U C123U | -7.42 |
| G47C A50U U81C C114U | -4.15 |
| G47C A84C | -0.862 |
| G47C A91C G113C | -2.97 |
| G47C A100U | -2.4 |
| G47C A108G U112A | -5.05 |
| G47C C49A C70A U106G | -5.44 |
| G47C C49A G63U U78C C123G C124U | -4.24 |
| G47C C49G U96A | -2.52 |
| G47C C49U | -2.12 |
| G47C C53U | -0.348 |
| G47C C53U C70A C124A | -1.6 |
| G47C C56A | -2.47 |
| G47C C56A G110U | -5.35 |
| G47C C62G | -4.1 |
| G47C C62G A118G | -3.74 |
| G47C C62G G120C G128A | -5.53 |
| G47C C64U | -2.48 |
| G47C C70U G93A C124A G127U G135U | -3.66 |
| G47C C102A G120U | -3.97 |
| G47C C102U G110U U133A | -5.04 |
| G47C C102U U112C | -1.55 |

| Variant | polymerase ribozyme fitness (log ratio) |
| --- | --- |
| G47C C115A | -2.22 |
| G47C G48A | -2.94 |
| G47C G48A C72U A91C C97U | -3.42 |
| G47C G52C G120U C123A | -1.92 |
| G47C G58A A121G G135U | 0.038 |
| G47C G61A | -0.75 |
| G47C G69U C72U | -1.29 |
| G47C G71A | -3.14 |
| G47C G117U | -4.33 |
| G47C U55C C56A G69U C86U C123A U132A | -1.54 |
| G47U A50G | -1.99 |
| G47U A50U U59C C73A U78A | -2.43 |
| G47U A66C A95C | -4.27 |
| G47U A66U U125G | -3.75 |
| G47U A68G C104U | -4.55 |
| G47U A90G | -0.297 |
| G47U A91C G113A U130A | -3.79 |
| G47U A95U | -1.91 |
| G47U A105C U106A | -1.48 |
| G47U A118G U130G | -3.01 |
| G47U C49U C62U | -4.79 |
| G47U C49U C62U G117U | -5.19 |
| G47U C53A C70U U126C | -2.43 |
| G47U C53A U106C | -0.879 |

| Variant | polymerase ribozyme fitness (log ratio) |
| --- | --- |
| G47U C53G A105G | -4.47 |
| G47U C53G C62A | -2.11 |
| G47U C56U C72U U116C | -3.11 |
| G47U C62G | -3.76 |
| G47U C64A U116G C124U | -6.49 |
| G47U C64U | -1.51 |
| G47U C64U A121U | 0.804 |
| G47U C70U C88U | -3.39 |
| G47U C72U | -1.71 |
| G47U C85U | -1.98 |
| G47U C89U | -3.28 |
| G47U C101A C104U | -2.34 |
| G47U C104A U129A | -5.96 |
| G47U G48A G52U | -2.97 |
| G47U G51U C124U | -3.46 |
| G47U G52A C73A C86A | -0.962 |
| G47U G58A A83C | -2.55 |
| G47U G58U C88U | -2.22 |
| G47U G60A G117A | -3.41 |
| G47U G60U | -1.15 |
| G47U G61A C85A | -1.18 |
| G47U G61A C123A | -0.25 |
| G47U G61C | -2.36 |
